Measured values reported in patent publication US20040097712A1 (Amgen, published 2004).

Assays:
[1] = target: T1, IL-1R1 on human cells (primary human chondrocytes; human whole blood) (human, UniProt P14778 18-569); test: cell-based or functional assay
T1 sequence (looked up): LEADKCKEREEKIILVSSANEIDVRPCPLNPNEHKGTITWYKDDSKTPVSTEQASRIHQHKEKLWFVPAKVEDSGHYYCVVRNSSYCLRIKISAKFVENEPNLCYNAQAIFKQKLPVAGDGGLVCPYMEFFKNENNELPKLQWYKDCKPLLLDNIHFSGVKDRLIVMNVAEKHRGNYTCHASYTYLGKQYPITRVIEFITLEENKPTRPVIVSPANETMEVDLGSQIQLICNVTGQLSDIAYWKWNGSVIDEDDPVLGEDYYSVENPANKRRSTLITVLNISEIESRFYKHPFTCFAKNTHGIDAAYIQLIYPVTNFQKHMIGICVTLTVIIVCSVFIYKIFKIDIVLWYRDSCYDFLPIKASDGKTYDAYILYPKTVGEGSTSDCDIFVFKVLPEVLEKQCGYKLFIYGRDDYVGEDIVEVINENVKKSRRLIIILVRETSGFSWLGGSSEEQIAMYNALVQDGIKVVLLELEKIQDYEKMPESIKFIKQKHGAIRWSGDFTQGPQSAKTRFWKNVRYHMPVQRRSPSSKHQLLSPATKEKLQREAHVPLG

[2] = target: T1, IL-1R1 on human cells (primary human …); test: cell-based or functional assay; remark: listed apart in the source
[3] = target: T2, rat sIL-1R1 (1+2+3 domain) (rat, UniProt Q02955 20-338); test: ELISA, plates coated with the protein, anti-human Fc-HRP detection
T2 construct: extracellular domain
T2 sequence (looked up): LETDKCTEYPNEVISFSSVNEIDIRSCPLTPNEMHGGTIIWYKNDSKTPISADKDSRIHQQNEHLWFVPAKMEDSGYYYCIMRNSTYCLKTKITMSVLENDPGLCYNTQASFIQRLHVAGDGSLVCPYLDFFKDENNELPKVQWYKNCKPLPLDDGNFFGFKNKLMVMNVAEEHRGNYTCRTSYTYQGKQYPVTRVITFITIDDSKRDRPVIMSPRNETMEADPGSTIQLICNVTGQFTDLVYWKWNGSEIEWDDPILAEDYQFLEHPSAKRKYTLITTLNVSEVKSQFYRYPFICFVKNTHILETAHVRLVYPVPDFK
Source text: (§1) The antibodies were subjected to a preliminary epitope sorting experiment. ELISA plates were coated with human sIL-1R1 (1+2+3 domain), truncated human sIL-1R1 (1+2 domain), rat sIL-1R1, human sIL-1R type II, and ovalbumin (negative control). Antibody binding was detected with a horseradish peroxidase-conjugated anti-Human Fc antibody (Pierce Chemical Co., Rockford, Ill.). A check mark (√) in Table 2 represents a positive result for binding; “X” represents a negative result.

[4] = target: T3, human sIL-1R type II (1+2+3 domain) (human, UniProt P27930 14-343); test: as above
T3 construct: extracellular domain; also called Hu sIL-1RII; human type II receptor
T3 sequence (looked up): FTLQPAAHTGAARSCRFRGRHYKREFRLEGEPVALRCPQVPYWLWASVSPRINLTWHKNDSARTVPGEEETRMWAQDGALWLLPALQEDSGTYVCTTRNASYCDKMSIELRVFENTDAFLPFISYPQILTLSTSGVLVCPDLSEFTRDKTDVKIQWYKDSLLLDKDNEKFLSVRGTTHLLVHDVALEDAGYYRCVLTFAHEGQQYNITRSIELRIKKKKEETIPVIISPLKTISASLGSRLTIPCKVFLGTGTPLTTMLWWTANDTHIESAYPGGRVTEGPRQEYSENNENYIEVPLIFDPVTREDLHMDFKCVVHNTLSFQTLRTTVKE
Source text: as §1

[5] = target: T4, ovalbumin (negative control) (UniProt P01012 2-386); test: as above
T4 construct: also called OA
T4 sequence (looked up): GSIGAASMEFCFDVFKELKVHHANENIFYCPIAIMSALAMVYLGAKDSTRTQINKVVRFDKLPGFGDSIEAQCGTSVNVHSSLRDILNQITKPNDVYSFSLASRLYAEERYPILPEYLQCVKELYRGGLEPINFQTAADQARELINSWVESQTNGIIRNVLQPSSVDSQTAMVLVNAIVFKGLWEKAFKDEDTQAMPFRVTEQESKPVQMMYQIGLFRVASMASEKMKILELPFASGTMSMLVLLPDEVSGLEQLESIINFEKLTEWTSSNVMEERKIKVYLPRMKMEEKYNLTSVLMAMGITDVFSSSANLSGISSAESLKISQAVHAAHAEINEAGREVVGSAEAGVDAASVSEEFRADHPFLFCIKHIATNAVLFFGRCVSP
Source text: as §1

[6] = target: T1, IL-1R1 on human cells (primary human …); test: cell-based or functional assay; remark: listed apart in the source

IC50, inhibition of IL-1β induced IL-6 production in primary human chondrocytes (Table 4A) [1]: 0.016 nM
IC50, inhibition of IL-1-induced IL-6 production in human whole blood, composite (pooled data) [2]: 0.126 nM
IC50, inhibition of IL-1-induced IL-6 production in human whole blood, donor 1047 [2]: 0.126 nM
IC50, inhibition of IL-1-induced IL-6 production in human whole blood, donor 1319 [2]: 0.111 nM
binding result [3]: no binding
binding result [4]: no binding
binding result [5]: no binding
IC50, inhibition of IL-1β induced IL-6 production in primary human chondrocytes (Table 4B) [6]: 0.007 nM
B1: 15C4 human anti-IL-1R1 monoclonal antibody (purified from hybridoma supernatant) (antibody, V domains shown)
VH: EVQLMQSGAEVKKPGESLKISCKGSGYSFSFHWIAWVRQMPGKGLEWMGIIHPGASDTRYSPSFQGQVTISADNSNSATYLQWSSLKASDTAMYFCARQRELDYFDYWGQGTLVTVSS
VL: EIVLTQSPDFQSVTPKEKVTITCRASQSIGSSLHWYQQKPDQSPKLLIKYASQSFSGVPSRFSGSGSGTDFTLTINSLEAEDAAAYYCHQSSSLPLTFGGGTKVEIK
notes: Human IgG kappa from HuMab mice
